The supplement of paper PMC7125110
± gives the standard error. For some assays here: Variants at the floor of the assay were thinned out.

B1: glmS ribozyme (parent)
chain: AUAAAAGCGCCAGAACUACAGAAAUGUAGUUGACGAGGAGGAGGUUUAUCGAAUUUUCGGCGGAUGCCUCCAAA

What was measured:
Conditions in all cases: with glucosamine-6-phosphate
glucosamine-6-phosphate [1] = variants of: B1; assay: kcat; higher = faster cleavage; RNA array
How it was run: (§1)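 Glucosamine-6-phosphate in HEPES/KCl/Mg(OAc)2 buffer, at 40 μM to 10 mM, was flowed over barcoded ribozyme variants transcribed in situ by E. coli RNA polymerase on sequenced MiSeq chips. Tracking was through a hybridised Cy3 probe at 37 °C. kobs, kcat and KM came from exponential decay fits and weighted Michaelis–Menten fits of normalised per-tile medians.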

glucosamine-6-phosphate [2] = variants of: B1; assay: KM; higher = weaker cofactor use; RNA array
How it was run: as §1

glucosamine-6-phosphate [3] = variants of: B1; assay: self-cleavage kobs at 40 uM GlcN6P; higher = faster cleavage; RNA array
How it was run: as §1

glucosamine-6-phosphate [4] = variants of: B1; assay: self-cleavage kobs at 160 uM GlcN6P; higher = faster cleavage; RNA array
How it was run: as §1

glucosamine-6-phosphate [5] = variants of: B1; assay: self-cleavage kobs at 640 uM GlcN6P; higher = faster cleavage; RNA array
How it was run: as §1

glucosamine-6-phosphate [6] = variants of: B1; assay: self-cleavage kobs at 2500 uM GlcN6P; higher = faster cleavage; RNA array
How it was run: as §1

glucosamine-6-phosphate [7] = variants of: B1; assay: self-cleavage kobs at 10000 uM GlcN6P; higher = faster cleavage; RNA array
How it was run: as §1

Row | Variant | kcat (glucosamine-6-phosphate [1]) [s⁻¹] | KM (glucosamine-6-phosphate [2]) [µM] | self-cleavage kobs at 40 uM GlcN6P (glucosamine-6-phosphate [3]) [s⁻¹] | self-cleavage kobs at 160 uM GlcN6P (glucosamine-6-phosphate [4]) [s⁻¹] | self-cleavage kobs at 640 uM GlcN6P (glucosamine-6-phosphate [5]) [s⁻¹] | self-cleavage kobs at 2500 uM GlcN6P (glucosamine-6-phosphate [6]) [s⁻¹] | self-cleavage kobs at 10000 uM GlcN6P (glucosamine-6-phosphate [7]) [s⁻¹]
1 | A15C U31A | 0.00691 ± 0.0013 | 1860 ± 480 | 0.000156 ± 2.2e-05 | 0.000607 ± 0.00013 | 0.0015 ± 0.00035 | 0.00303 ± 0.00078 | 0.0067 ± 0.001
2 | U54C U57G | 0.000492 ± 1.5e-05 |  |  |  |  |  | 6.43e-05 ± 1.1e-05
3 | U54A G66C | 0.000876 ± 0.00013 | 1230 ± 390 |  | 0.00012 ± 2.7e-05 | 0.000259 ± 6.7e-05 | 0.000758 ± 0.00014 | 0.000737 ± 0.0001
4 | G13U A39C | 0.000234 ± 2e-05 | 4490 ± 600 |  |  | 2.78e-05 ± 6e-06 | 8.65e-05 ± 1e-05 | 0.000158 ± 2.7e-05
5 | G41A A64G | 0.00209 ± 0.00064 | 5950 ± 2800 |  | 7.21e-05 ± 2e-05 |  | 0.00071 ± 0.00016 | 0.00128 ± 0.00023
6 | C50G U56A | 3e-05 ± 4.9e-06 |  |  |  |  | 4.14e-05 ± 1.9e-05 | 
7 | U30C A42G | 0.000456 ± 7.6e-05 | 1310 ± 520 |  | 7.93e-05 ± 2.8e-05 | 0.00012 ± 3.3e-05 | 0.000368 ± 9.6e-05 | 0.0004 ± 5.9e-05
8 | C10A U57G | < 1e-05 |  | < 1e-05 |  |  |  | 
9 | A12C G41A | 0.00163 ± 0.00065 |  | 7.57e-05 ± 9.1e-06 | 0.000107 ± 1.7e-05 | 0.000353 ± 3.5e-05 | 0.00105 ± 0.00012 | 0.00136 ± 0.00017
10 | U46A C58A | 2.63e-05 ± 4.4e-06 |  |  |  |  |  | 
11 | A6U U31C | 3.19e-05 ± 7.8e-07 | 647 ± 96 |  |  |  |  | 2.97e-05 ± 1.2e-05
12 | G13A C67A | 0.000273 ± 6.7e-05 | 4490 ± 2100 |  |  | 2.62e-05 ± 8.7e-06 | 0.000133 ± 2.4e-05 | 0.000181 ± 2.5e-05
13 | A14C U54G | 0.00619 ± 0.0017 | 3310 ± 1300 | 0.00011 ± 1.7e-05 | 0.000219 ± 3.6e-05 | 0.00107 ± 0.00016 | 0.00296 ± 0.00041 | 0.00448 ± 0.00056
14 | G37A A64G | 0.00317 ± 0.0014 |  | 6.01e-05 ± 1.3e-05 | 5.16e-05 ± 2.1e-05 | 0.000337 ± 6.8e-05 | 0.000977 ± 0.00019 | 0.002 ± 0.00025
15 | G7A G32A C50G | 4.21e-05 ± 1.3e-05 |  | 4.2e-05 ± 1.6e-05 | 4.85e-05 ± 1.9e-05 |  | 6.89e-05 ± 2.8e-05 | 
16 | C11U A36C | < 1e-05 |  | < 1e-05 | < 1e-05 |  |  | < 1e-05
